Assay [1] deals with 412-423 branched peptide (UniProt P27958). In words: antibody titration on the branched peptide (FIG. 10).
Assay [2] concerns the target E1E2 of HCV genotype 5 isolate UKN5.15.11 (Hepatitis C virus genotype 5). In words: cell-based or functional assay.
The target of assay [3] is E1E2 of HCV genotype 3a isolate UKN3A13.6 (Hepatitis C virus genotype 3a). Put plainly: cell-based or functional assay.
For assay [4], the target named is H77 E1E2 mutant N415A (Hepatitis C virus genotype 1a strain H77) (UniProt P27958). In words: GNA capture EIA of E1E2 from HEK 293T cells.
Assay [5] concerns the target H77 E1E2 mutant L413A (Hepatitis C virus genotype 1a strain H77) (UniProt P27958). Put plainly: GNA capture EIA of E1E2 from HEK 293T cells.
For assay [6], the target named is H77 E1E2 mutant G418A (Hepatitis C virus genotype 1a strain H77) (UniProt P27958). In words: GNA capture EIA of E1E2 from HEK 293T cells.
Assay [7] has as its target H77 E1E2 mutant Q412A (Hepatitis C virus genotype 1a strain H77) (UniProt P27958). In words: GNA capture EIA of E1E2 from HEK 293T cells.
For assay [8], the target named is H77 E1E2 mutant W420A (Hepatitis C virus genotype 1a strain H77) (UniProt P27958). Put plainly: GNA capture EIA of E1E2 from HEK 293T cells.

The source of these data is patent US20140322204A1.

In turn, monoclonal antibody AP33 returned a fold lower concentration required to obtain 50% binding, against MAb 3/11 in assay [1] of more than 10 fold. For the same substance, the IC50 of HCVpp neutralisation (ug/ml (printed p.g/ml)) in assay [2] came to 0.6; in assay [3], 22. Moreover, the reduction of binding compared to wild type in assay [4], in assay [5], in assay [6] and in assay [8] was more than 75% throughout. Further, in assay [7], the enhancement of binding compared to wild type came to 50%.
